Values quoted from earlier work in publication PMC4599702.

Columns and labels:
[1] = target: CBP KIX (Homo sapiens) (UniProt Q92793)
[2] = target: p300 KIX (Homo sapiens) (UniProt Q09472); assay: microscale thermophoresis
UniProt Q09472, sequence (Q09472 563-648): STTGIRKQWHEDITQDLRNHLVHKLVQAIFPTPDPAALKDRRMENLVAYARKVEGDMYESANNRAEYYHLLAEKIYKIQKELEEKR

UniProt Q92793, sequence (Q92793 584-669): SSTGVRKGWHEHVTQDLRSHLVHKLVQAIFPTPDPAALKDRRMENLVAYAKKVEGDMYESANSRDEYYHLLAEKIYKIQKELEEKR

Myb (from UniProt P10242)
Kd [1]: 650 nM
Kd [2]: 2500 nM
